Measured values published in the nanobody polyreactivity screen of Harvey et al. (2022).

Assay: yeast display, Sf9 membrane polyspecificity reagent, FACS + sequencing; frameworks hold sequencing errors
In short: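 In a synthetic yeast display library (Saccharomyces cerevisiae BJ5465), nanobody expression was induced with galactose for 36–48 hours. FACS gates were set low and high (top ~1%) using anti-HA fluorescence for expression and streptavidin fluorescence for binding of the Sf9 membrane reagent. Each polyreactivity label is drawn from the gate of origin.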

Sequence | polyreactivity (PSR sort gate)
QVQLVESGGGLVQAGGSLRLSCAASGFIFGFYAMGWYIQAPGKERELVAAISGGGGRTNYADSVKGRFTISRDYAKNTVYLQMNSLNPEDTAVYYCAATPGRRRYRYYYWGQGTQVTVSS | high polyreactivity
QVQLVESGGGLVQAGGSLRLSCAASGFIFGFYAMGWYRQAPGKERELVAAISWSGGSTYYADSVKGRFTISRDNAKNTVYLQMNSLKPEDTAGYYCAAYFYYLDDAVTYDYWGQGTQVTVSS | low polyreactivity
QVQLVESGGGLVQAGGSLRLSCAASGFIFGGYAMGWYRQAPGKEREFVAAIRQRGGSTYYADSVKGRFTISRDNAKNTVYLQMNSLKPEDTAVYFCAATVRAVQASVRYGYWGQGTQVTVSS | high polyreactivity
QVQLVESGGGLVQAGGSLRLSCAASGFIFGGYAMGWYRQAPGKERELVAAISSSGGSTYYADSVKGRFTISRDNAKNTVYLQMNSLKPEDTAVYYCAKVGWSRRYYYWGQGTQVTVSS | high polyreactivity
QVQLVESGGGLVQAGGSLRLSCAASGFIFGGYAMGWYRQAPGKERELVAAITWSGGNTYYADSVKGRFTISRDNAKNTVYLQMNSLKPEDTAVYYCAADYWTKYGYWGQGTQVTVSS | low polyreactivity
QVQLVESGGGLVQAGGSLRLSCAASGFIFGKNDMGWYRQAPGKERELVAAITIGGSTNYADSVKGRFTISRDNAKNTVYLQMNSLTPEDTAVYYCGADATSLYNYWGLGTQVTVSS | low polyreactivity
QVQLVESGGGLVQAGGSLRLSCAASGFIFGLYAMGWYRQAPGKEREFVAAISWSGGSTYYADSVKGRFTISRDNAKNTVYLQMNSLKPEDTAVYYCAREYHGDSRRYDYWGQGTQVTVSS | high polyreactivity
QVQLVESGGGLVQAGGSLRLSCAASGFIFGNYAMGWYRQAAGNERELVAAISQRGGTTYYADSVKGRFTISRDNAKNTVYLQMNSLKPEDTAVYYCKAYYIGYYVDYEYWGQGTQVTVSS | high polyreactivity
QVQLVESGGGLVQAGGSLRLSCAASGFIFGPYAMGWYRQAPGKERELVAAISRRGGSTYYADSVKGRFTISRDNAKNTVYLHMNSLKPEDTAVYYCATAGWGEAEGGYWGQGTQVTVSS | high polyreactivity
QVQLVESGGGLVQAGGSLRLSCAASGFIFGRNTMGWYIQAPGKERELVAAITSGGSTNYADSVKGRFTISRDNAKNTVYLQMNSLKPEDTAVYYCAAEVSTYWTLYDYWGQGTQVTVSS | high polyreactivity
QVQLVESGGGLVQAGGSLRLSCAASGFIFGRYAMGWYRQAPGKERELVAAISRSGARTYYADSVKGRFTISRDNAKNTVYLQMNSLKPEDTAVYYCARYQPRVSFDYWGQGTQVTVSS | high polyreactivity
QVQLVESGGGLVQAGGSLRLSCAASGFIFGSNAMGWYRQAPGQERELVAAIDSSGGRTNYADSVKGRFTISRDNAKNTVYLQMNSLKPEDTAVYYCNVYRWSQLFEYDYWGQGTQVTVSS | high polyreactivity
QVQLVESGGGLVQAGGSLRLSCAASGFIFGSNVMGWYRQAPGKERELVAAISRSGGSTYYADSVKGRFTISRDNAKNTVYLQMNSLKPEDTAVYYCNKLAVGRSRTGDYWGQGTQVTVSS | high polyreactivity
QVQLVESGGGLVQAGGSLRLSCAASGFIFGSYAMGWYRQAPGKERELVAAITSDGNTDYADSVKGRFTISRDNAKNTVYLQMNSLKPEDTAVYYCATDWVDHYDYWGQGTQVTVSS | low polyreactivity
QVQLVESGGGLVQAGGSLRLSCAASGFIFGSYAMGWYRQAPGNERELVAAISDSGDSTYYADSVKGRFTISRDNAKNTVSLQLTRLKPEDTAVYYCNRGYRWRRYENYYWGQVTQVTVSS | high polyreactivity
QVQLVESGGGLVQAGGSLRLSCAASGFIFGTYAMGWYRQAPGKERELVAAISQSGGRTYYADSVKGRFTISRDNAKNTVYLQMNSLKPEDTAVYYCAAYRYVRYDYWGQGTQVTVSS | high polyreactivity
QVQLVESGGGLVQAGGSLRLSCAASGFIFGVYAMGWYRQAPGKERELVAAISRSGGSTYYADSVKGRFTISRDNAKNTVYLQMNSLKPEDTAVYYCAVRGSWYSEHNYWGQGTQVTVSS | high polyreactivity
QVQLVESGGGLVQAGGSLRLSCAASGFIFGYNAMGWYRQAPGKERELLAAITWIGGTTYYADSVKGRFTISRDNAKNTVYLQMNSLNPEDTAVYYCARQRSYGRYSYSYVYEYWGQGTLVTVSS | high polyreactivity
QVQLVESGGGLVQAGGSLRLSCAASGFIFGYNAMGWYRQAPGKERELVAAISYSGVSTYYADSVKGRFTISRDNAKNTVYLQMNSLKPEDTAVYYCAARPIGYKPRGEYDYWGQGTQVTVSS | high polyreactivity
QVQLVESGGGLVQAGGSLRLSCAASGFIFGYNAMGWYRQAPGKERELVAAITSRGDRTYYADSVKGRFTISRDNAKNTVYLQMNSLKPEDTAVYYCAKATRGYRSPYGSIGYYYWGQGTQVTVSS | high polyreactivity
QVQLVESGGGLVQAGGSLRLSCAASGFIFGYNAMGWYRQAPGKERELVATISWSGGSTYYADSVKGRFTISRDNAKNTVYFQMNSLKPEDTAVYYCAAEGWERLGCVSWVTVDYWGQGTQVTVSS | low polyreactivity
QVQLVESGGGLVQAGGSLRLSCAASGFIFGYYAMGWYRQAPGKERELVAAISKSGGRTRYADSVKGRFTISRDNAKNTVYLQMNSLKPEDTAVYYCATYDPARSTQGYDYWGQGTQVTVSS | high polyreactivity

Sequence | polyreactivity (PSR sort gate)
QVQLVESGGGLVQAGGSLRLSCAASGFIFGYYAMGWYRQAPGKERELVAVISRGGGSTHYADSVKGRFTISRDNAKNTVYLQMNSLKPEDTAVYYCAAQLGRRSATYYYWGQGTQVTVSS | high polyreactivity
QVQLVESGGGLVQAGGSLRLSCAASGFIFGYYTMGWYRQAPGKERELVAAISSRGGSTYYADSVKGRFTISRDNAKNTVYLQMNSLKPEDTAVYYCAKRSTYTGSWWERGYWGQGTQVTVSS | high polyreactivity
QVQLVESGGGLVQAGGSLRLSCAASGFIFGYYVMGWYRQAPGKERELVAAISGSGGRTYYADSVKGRFTISRDNAKNNVYLQMNSLKPEDTAVYYCNAVAFYRDYNYWGQGTQVTVSS | high polyreactivity
QVQLVESGGGLVQAGGSLRLSCAASGFIFHGYTMGWYRQAPGKERELVAGISFTGGSTYYADSVKGRFTISRDNAKNTVYLQMNSLKPEDTAVYYCAATYSSYWARYYYWGQGTQVTVSS | high polyreactivity
QVQLVESGGGLVQAGGSLRLSCAASGFIFHKYAMGWYRQAPGKERELVARITGSGASTFYADSVKGRFTISRDNAKNTVYLQMNSLKPEDTAVYYCAATIGSLLKYNRHRYYYWGQGTQVTVSS | high polyreactivity
QVQLVESGGGLVQAGGSLRLSCAASGFIFHNYAMGWSRQAPGKERELVAAISWSGSRTYYADSVKGRFTISRDNAKNTVYLQMNSLKPEDTAVYYCNAPGSPVVQQPGYYWGQGTQVTVSS | low polyreactivity
QVQLVESGGGLVQAGGSLRLSCAASGFIFHRYAMGGYRQAPGKERELVASITRSGGSTYYADSVKGRFTISRDNAKNTVYLQMNSLKPEDTAVYYCAAQLPSYYKYPRHDYWGQGTQVTVSS | high polyreactivity
QVQLVESGGGLVQAGGSLRLSCAASGFIFHRYAMGWYRQAPGKERELVAAISRRGGSTYYADSVKGRFTISRDNAKNTVYLQMNSLKPEDTAVYYCARTVGDRTLLESDSWGQGTQVTVSS | high polyreactivity
QVQLVESGGGLVQAGGSLRLSCAASGFIFHVYAMGWYRQAPGKERELVAAISGTGGSTYYADSVKGRFTISRDTALNTVSLQMNSLKPEDTAVYYYKAERSGNGYCGQGTQVTVSS | high polyreactivity
QVQLVESGGGLVQAGGSLRLSCAASGFIFHYNAMGWYRPAPGKERELVAAITSGDSTDYADSVKGRFTISRDNAKNTVYLQMNSLKREDTAVYYCAAAEGYLSKYENDYWGQGTQVTVSS | low polyreactivity
QVQLVESGGGLVQAGGSLRLSCAASGFIFIAYAMGWYRQAPGKERELVAAISKSGTRTYYADSVKGRFTISRDNAKNTVYLQMNSLKPEDTAVYYCATYSTYNKGTHGDYWGQGTQVTVSS | high polyreactivity
QVQLVESGGGLVQAGGSLRLSCAASGFIFIINAMGWYRQAPGKEREFVAAITGSGGSTYYADSVKGRFTISRDNAKNTVYLQMNSLKPEDTAVYYCAKVGPYYSGKVYGRTYYSRYGYWGQGTQVTVSS | low polyreactivity
QVQLVESGGGLVQAGGSLRLSCAASGFIFIRYAMGWYIQAPGKERELVASSTGRGGSTYYADSVKVRFTISRDNAKNTVYLQMNSLKPEDTAVYYCAAYYRYPTGWRWGGYYLYDYWGQGTQVTVSS | high polyreactivity
QVQLVESGGGLVQAGGSLRLSCAASGFIFKANAMGWYRQAPGKERELVASITFGGDSTYYADSVKGRFTISRDNAKNTVYLQMNSLKPEDTAVYYCNTRRRSYRTYYYWGQGTQVTVLS | low polyreactivity
QVQLVESGGGLVQAGGSLRLSCAASGFIFKHYAMGWYRQAPGKERELVAAISRSTGRTNYADSVKGRFTISRDNAKNTDYLQMNSLKPEDTAVYYCAAYRYLRYDYWGQGTQVTVSS | high polyreactivity
QVQLVESGGGLVQAGGSLRLSCAASGFIFKNYAMGWYRQAPGKERELVAAITSSGGNTYYADSVKGRFTISRDNAKNTVYLQMNSLKPEDTAVYYCNARFRTLYWGQGTQVTVSS | high polyreactivity
QVQLVESGGGLVQAGGSLRLSCAASGFIFKRNAMGWYRQATGNERELVAAITKSGVNTYYADSVKGRFTISRDNAKNTVYLQMTSLKPEDTAVYYCAKTLTYGFRRYDYWGQGTQVTVSS | high polyreactivity
QVQLVESGGGLVQAGGSLRLSCAASGFIFKRYAMGWNRQAPGKVRELVAAITSRGGSTYYADSVKGRFTISRDNAKNTVYLQMNSLKPEDTAVYYCNAGTSAGSYDYWGQGTQVTVSS | high polyreactivity
QVQLVESGGGLVQAGGSLRLSCAASGFIFKRYAMGWYRQAPGKERELVATISNSGGRTYYADSVKWRFTISRDNAKNTVYLQMNSLKPEDTAVYYCAALPFWWGGYWGQGTQVTVSS | high polyreactivity
QVQLVESGGGLVQAGGSLRLSCAASGFIFKRYVMGWYRQAPGKERELVAGITRSGSSTSYADSVKGRFTISRDNAKNTVYLQMNSLKPEDTAVYYCAARAWKKLDYWGQGTQVTVSS | high polyreactivity
QVQLVESGGGLVQAGGSLRLSCAASGFIFKVNAMGWYRQAPGKERGYVYADSVKGRFTISRDNAKNTVYLQMNSLKPEHTAVYYCAAEPGEGCDYWGQATQVTVSS | low polyreactivity
